The test system of data set [1] is HeLa Kyoto. Put plainly: solubility in G1/S (NP-40 vs SDS abundance) (log2 ratio); higher = more soluble. The conditions noted are these: cell cycle stage: G1/S.
Data set [2] has as its system HeLa Kyoto. Put plainly: solubility change mitosis vs G1/S (difference of NP-40 vs SDS log2 ratios) (log2 ratio difference); higher = more soluble in mitosis.
In data set [3] the test system is HeLa Kyoto. Nature of the data set: thermal stability score vs G1/S (z-score of summed log2 fold changes over temperatures); higher = more thermally stable than in G1/S.
The subject of data set [4] is HeLa Kyoto. Put plainly: melting temperature (median over replicates), in situ; higher = more thermally stable.
[5] abbreviates: cell cycle stage: early G1 (4.5 h after nocodazole release).
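Wherever melting temperature (median over replicates), in situ is given: HeLa Kyoto cells synchronized by double thymidine or nocodazole block, proteins quantified by TMT10plex mass spectrometry, three independent biological replicates.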
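Wherever solubility change mitosis vs G1/S (difference of NP-40 vs SDS log2 ratios) is given: synchronized HeLa Kyoto cells (double thymidine block for G1/S, nocodazole release for mitosis), protein amounts in NP-40 versus SDS lysates quantified by mass spectrometry, three biological replicates.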
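Wherever solubility in G1/S (NP-40 vs SDS abundance) is given: HeLa Kyoto cells arrested at G1/S by double thymidine block, proteins quantified by TMT10plex mass spectrometry in mild NP-40 versus SDS extracts, three biological replicates.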
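Wherever thermal stability score vs G1/S (z-score of summed log2 fold changes over temperatures) is given: synchronized HeLa Kyoto cells, proteins quantified by TMT10plex mass spectrometry, three biological replicates, mitosis taken 0.5 h after nocodazole release, G1/S directly after double thymidine block.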

As to “MALQTLQSSWVTFRKILSHFPEELSLAFVYGSGVYRQAGPSSDQKNAMLDFVFTVDDPVAWHSKNLKKNWSHYSFLKVLGPKIITSIQNNYGAGVYYNSLIMCNGRLIKYGVISTNVLIEDLLNWNNLYIAGRLQKPVKIISVNEDVTLRSALDRNLKSAVTAAFLMLPESFSEEDLFIEIAGLSYSGDFRMVVGEDKTKVLNIVKPNIAHFRELYGSILQENPQVVYKSQQGWLEIDKSPEGQFTQLMTLPKTLQQQINHIMDPPGKNRDVEETLFQVAHDPDCGDVVRLGLSAIVRPSSIRQSTKGIFTAGKSFGNPCVTYLLTEWLPHSWLQCKALYLLGACEMLSFDGHKLGYCSKVQTGITAAEPGGRTMSDHWQCCWKLYCPSEFSETLPVCRVFPSYCFIYQSYRCIGLQKQQHLCSPSSSPSLRQLLPSVLVGYFCCYCHFSKW [TAMM41]”, the “solubility in G1/S (log2)” value in data set [1] was determined as 0.0094. In addition, the “solubility change mitosis (log2)” value in data set [2] was -0.163. Besides, the thermal stability score is -1.37 in data set [3] (setting [5]) and -1.38 in data set [3] (cell cycle stage: mitosis). Also, the melting temperature is 52.6 °C in data set [4] (cell cycle stage: G1/S) and 52.8 °C in data set [4] (cell cycle stage: mitosis).
Take “MALRGVSVRLLSRGPGLHVLRTWVSSAAQTEKGGRTQSQLAKSSRPEFDWQDPLVLEEQLTTDEILIRDTFRTYCQERLMPRILLANRNEVFHREIISEMGELGVLGPTIKGYGCAGVSSVAYGLLARELERVDSGYRSAMSVQSSLVMHPIYAYGSEEQRQKYLPQLAKGELLGCFGLTEPNSGSDPSSMETRAHYNSSNKSYTLNGTKTWITNSPMADLFVVWARCEDGCIRGFLLEKGMRGLSAPRIQGKFSLRASATGMIIMDGVEVPEENVLPGASSLGGPFGCLNNARYGIAWGVLGASEFCLHTARQYALDRMQFGVPLARNQLIQKKLADMLTEITLGLHACLQLGRLKDQDKAAPEMVSLLKRNNCGKALDIARQARDMLGGNGISDEYHVIRHAMNLEAVNTYEGTHDIHALILGRAITGIQAFTASK [GCDH]”: the “solubility in G1/S (log2)” value in data set [1] worked out at 0.217. In addition, in data set [2], the “solubility change mitosis (log2)” value is -0.103. Besides, the thermal stability score was -0.63 in data set [3] (setting [5]) and 1.21 in data set [3] (cell cycle stage: mitosis). Further, the melting temperature turned out to be 54.2 °C in data set [4] (cell cycle stage: G1/S) and 54.7 °C in data set [4] (cell cycle stage: mitosis).
Take “MALSCTLNRYLLLMAQEHLEFRLPEIKSLLLLFGGQFASSQETYGKSPFWILSIPSEDIARNLMKRTVCAKSIFELWGHGQSPEELYSSLKNYPVEKMVPFLHSDSTYKIKIHTFNKTLTQEEKIKRIDALEFLPFEGKVNLKKPQHVFSVLEDYGLDPNCIPENPHNIYFGRWIADGQRELIESYSVKKRHFIGNTSMDAGLSFIMANHGKVKENDIVFDPFVGTGGLLIACAHFGAYVYGTDIDYNTVHGLGKATRKNQKWRGPDENIRANLRQYGLEKYYLDVLVSDASKPSWRKGTYFDAIITDPPYGIRESTRRTGSQKEIPKGIEKWEKCPESHVPVSLSYHLSDMFLDLLNFAAETLVLGGRLVYWLPVYTPEYTEEMVPWHPCLELVSNCEQKLSSHTSRRLITMEKVKKFENRDQYSHLLSDHFLPYQGHNSFREKYFSGVTKRIAKEEKSTQE [TRMT11]”: in data set [1], the “solubility in G1/S (log2)” value amounted to 0.171. Moreover, the “solubility change mitosis (log2)” value in data set [2] is -0.155. In addition, the thermal stability score in data set [3] (setting [5]) is 0.848; in data set [3] (cell cycle stage: mitosis), -0.0136. For the same sequence, the melting temperature was 54.4 °C in data set [4] (cell cycle stage: G1/S) and 53.5 °C in data set [4] (cell cycle stage: mitosis).
With “MAMAPSPSLVQVYTSPAAVAVWEWQDGLGTWHPYSATVCSFIEQQFVQQKGQRFGLGSLAHSIPLGQADPSLAPYIIDLPSWTQFRQDTGTMRAVRRHLFPQHSAPGRGVVWEWLSDDGSWTAYEASVCDYLEQQVARGNQLVDLAPLGYNYTVNYTTHTQTNKTSSFCRSVRRQAGPPYPVTTIIAPPGHTGVACSCHQCLSGSRTGPVSGRYRHSMTNLPAYPVPQHPPHRTASVFGTHQAFAPYNKPSLSGARSAPRLNTTNAWGAAPPSLGSQPLYRSSLSHLGPQHLPPGSSTSGAVSASLPSGPSSSPGSVPATVPMQMPKPSRVQQALAGMTSVLMSAIGLPVCLSRAPQPTSPPASRLASKSHGSVKRLRKMSVKGATPKPEPEPEQVIKNYTEELKVPPDEDCIICMEKLSTASGYSDVTDSKAIGSLAVGHLTKCSHAFHLLCLLAMYCNGNKDGSLQCPSCKTIYGEKTGTQPQGKMEVLRFQMSLPGHEDCGTILIVYSIPHGIQGPEHPNPGKPFTARGFPRQCYLPDNAQGRKVLELLKVAWKRRLIFTVGTSSTTGETDTVVWNEIHHKTEMDRNITGHGYPDPNYLQNVLAELAAQGVTEDCLEQQ [DTX2]”, the “solubility in G1/S (log2)” value in data set [1] amounted to 0.0228. The “solubility change mitosis (log2)” value in data set [2] was -0.253. Also, the thermal stability score in data set [3] (setting [5]) amounted to 0.67; in data set [3] (cell cycle stage: mitosis) it was 0.769. The same sequence yielded a melting temperature in data set [4] (cell cycle stage: mitosis) of 47.4 °C.
As for “MAMQKIFAREILDSRGNPTVEVDLHTAKGRFRAAVPSGASTGIYEALELRDGDKGRYLGKGVLKAVENINNTLGPALLQKKLSVVDQEKVDKFMIELDGTENKSKFGANAILGVSLAVCKAGAAEKGVPLYRHIADLAGNPDLILPVPAFNVINGGSHAGNKLAMQEFMILPVGASSFKEAMRIGAEVYHHLKGVIKAKYGKDATNVGDEGGFAPNILENNEALELLKTAIQAAGYPDKVVIGMDVAASEFYRNGKYDLDFKSPDDPARHITGEKLGELYKSFIKNYPVVSIEDPFDQDDWATWTSFLSGVNIQIVGDDLTVTNPKRIAQAVEKKACNCLLLKVNQIGSVTESIQACKLAQSNGWGVMVSHRSGETEDTFIADLVVGLCTGQIKTGAPCRSERLAKYNQLMRIEEALGDKAIFAGRKFRNPKAK [ENO3]”, the “solubility in G1/S (log2)” value in data set [1] was 0.117. For the same sequence, the “solubility change mitosis (log2)” value in data set [2] is 0.0137. Further, the thermal stability score in data set [3] (setting [5]) is -0.939; in data set [3] (cell cycle stage: mitosis) it was -1.58. Also, the melting temperature in data set [4] (cell cycle stage: G1/S) stood at 55.2 °C; in data set [4] (cell cycle stage: mitosis) it was 56.6 °C.
“MANEVIKCKAAVAWEAGKPLSIEEIEVAPPKAHEVRIKIIATAVCHTDAYTLSGADPEGCFPVILGHEGAGIVESVGEGVTKLKAGDTVIPLYIPQCGECKFCLNPKTNLCQKIRVTQGKGLMPDGTSRFTCKGKTILHYMGTSTFSEYTVVADISVAKIDPLAPLDKVCLLGCGISTGYGAAVNTAKLEPGSVCAVFGLGGVGLAVIMGCKVAGASRIIGVDINKDKFARAKEFGATECINPQDFSKPIQEVLIEMTDGGVDYSFECIGNVKVMRAALEACHKGWGVSVVVGVAASGEEIATRPFQLVTGRTWKGTAFGGWKSVESVPKLVSEYMSKKIKVDEFVTHNLSFDEINKAFELMHSGKSIRTVVKI [ADH5]”: in data set [1], the “solubility in G1/S (log2)” value came to 0.147. Also, the “solubility change mitosis (log2)” value in data set [2] was -0.171. The results for the thermal stability score in data set [3] (setting [5]) and in data set [3] (cell cycle stage: mitosis) were -4.67 and -2.86, respectively. The melting temperature came to 56.8 °C in data set [4] (cell cycle stage: G1/S) and 56.7 °C in data set [4] (cell cycle stage: mitosis).

The record behind these values is the supplement of paper PMC5998384.
